This is an account of results in patent US20130345145A1, “ATIP3 AND BIOLOGICALLY ACTIVE FRAGMENTS THEREOF FOR USE IN THE TREATMENT OF CANCER” (INSTITUT NATIONAL DE LA SANTE ET DE LA RECHERCHE MEDICALE …, priority 2011, published 2013).

Assay [1] relates to human breast cancer MCF-7 cells. Nature of the assay: Clonogenicity experiments. Type of assay: cell-based. Conditions: for inhibitory effect on colony number relative to that of GFP-ATIP3: MCF7, FIG. 12; for cell proliferation / number of G418-resistant colonies: MCF-7 transfected with GFP fusion, G418 selection 3 weeks, compared to GFP. How it is done: For clonogenicity experiments, human breast cancer MCF-7 cells were transfected for 24 h with […] pEGFP-C1 vector or 2 μg of pEGFP-ATIP3BD cDNA. Similar transfection efficiency (50%) was assessed by FACS analysis and cell viability was verified using trypan blue. Cells were then plated at various dilutions in 12 well plates and transfectants were selected by adding geneticin (G418, 1 mg/ml, Gibco) in fresh medium twice a week for 3 weeks. Resistant colonies were stained with 0.5% crystal violet (Sigma) and counted.
The ability of human MCF7 breast cancer cells to form colonies following expression of minimal domains D2N and D2C was analyzed by clonogenicity experiments as described before (see example 2).

Assay [2] has as its system microtubule cytoskeleton. Nature of the assay: Immunofluorescence intracellular localization in RPE1 cells. Type of assay: cell-based, Human. Conditions: RPE1 cells transfected 24 hrs, data not shown. The method, then: Immunofluorescence study was performed as example 2. Briefly, Human retinal pigment epithelial (RPE1) cells were transfected for 24 hrs with GFP-D2N, GFP-D2C or GFP-D2CC constructs prior to fixation in ice-cold methanol and incubation with anti-GFP antibodies as described (page 21, lines 1-9).

Assay [3] deals with microtubule cytoskeleton. Kind of assay: Immunofluorescence localization in transfected MCF-7 cells. Conditions: MCF-7 cells transiently transfected 24 h, data not shown. In kind it is cell-based, human. The method, then: (§1) The pEGFP-ATIP3BD plasmid was transiently transfected into human breast cancer MCF-7 cells. Localization of GFP-ATIP3BD fusion protein at the microtubule cytoskeleton was examined by immunofluorescence, and its ability to interact with stabilized microtubules was determined by co-sedimentation assay.
Exponentially growing human breast cancer MCF-7 cells plated on coverslips were transiently transfected (24 h) with pEGFP-ATIP3BD plasmid, and fixed in ice-cold methanol for 5 min prior to incubation for 1 h at room temperature with primary antibodies: anti-GFP monoclonal antibodies (Roche, diluted 1:200) and human anti-alpha-tubulin antibodies clone F2C (diluted 1:10), as described in Rodrigues-Ferreira et al. (PLoS One. 2009; 4(10):e7239 2009). After extensive washing, cells were incubated for 30 min at room temperature with appropriate secondary Cy-2-conjugated anti-human and/or Cy-3-conjugated anti-mouse antibodies (Jackson Laboratories, Interchim, France) diluted 1:500. Coverslips were mounted on glass slides using Glycergel Mounting Medium (DakoCytomation) and examined with a Leica TCS SP2 AOBS confocal microscope using appropriate filters. Image analysis was performed with NIH ImageJ software.

The subject of assay [4] is stabilized microtubules. Kind of assay: Microtubule co-sedimentation assay. Type of assay: binding, human. To be noted: MCF-7 lysate, taxol 20 μM, data not shown. The method, then: as §1
For microtubule cosedimentation assay, human breast cancer MCF-7 cells were transiently transfected (24 h) with pEGFP-ATIP3BD plasmid and incubated for 20 min at 4° C. in PEM buffer (100 mM PIPES, pH 6.9, 1 mM MgSO4, 1 mM EGTA), scraped and sonicated prior to centrifugation at 15000 rpm for 10 min, 4° C. Clarified samples were incubated with taxol (20 μM) in the presence of GTP (1 mM) and DTT (1 mM) for 45 min at 37° C. and were spun at 70 000 g for 30 min at 30° C. through a cushion buffer containing 40% glycerol, 20 μM taxol and 1 mM GTP. The supernatant (S) and pellet (P) fractions were collected separately and subsequently immunoblotted with anti-GFP (Roche) and anti-alpha-tubulin (Sigma) antibodies.

B1: D2C: domain of ATIP3BD, amino-acid positions 705-874 of SEQ ID NO: 1, expressed as GFP fusion (protein, listed as Homo sapiens)
chain: TTSGRNISKPDSCGLRQIAAPKAKVGPPVSCLRRNSDNRNPSADRAVSPQRIRRVSSSGKPTSLKTAQSSWVNLPRPLPKSKASLKSPALRRTGSTPSIASTHSELSTYSNNSGNAAVIKYEEKPPKPAFQNGSSGSFYLKPLVSRAHVHLMKTPPKGPSRKNLFTALNA
modifications: GFP fusion; (1)..(409) acidic N-terminal region
For B1, in assay [1], the “inhibitory effect on colony number relative to that of GFP-ATIP3” value is 78% and the “cell proliferation / number of G418-resistant colonies” value (“cell proliferation / number” below) is “strongly reduces the number of G418-resistant colonies”. Besides, the intracellular localization result in assay [2] was “associate with the microtubule cytoskeleton”.

B2: ATIP3BD: basic central domain of ATIP3, residues 410-874 of SEQ ID NO: 1, expressed as GFP fusion (protein, listed as Homo sapiens)
chain: GLTWDANDMVISTDKTMCMSTPVLEPTKVTFSVSPIEATEKCKKVEKGNRGLKNIPDSKEAPVNLCKPSLGKSTIKTNTPIGCKVRKTEIISYPRPNFKNVKAKVMSRAVLQPKDAALSKVTPRPQQTSASSPSSVNSRQQTVLSRTPRSDLNADKKAEILINKTHKQQFNKLITSQAVHVTTHSKNASHRVPRTTSAVKSNQEDVDKASSSNSACETGSVSALFQKIKGILPVKMESAECLEMTYVPNIDRISPEKKGEKENGTSMEKQELKQEIMNETFEYGSLFLGSASKTTTTSGRNISKPDSCGLRQIAAPKAKVGPPVSCLRRNSDNRNPSADRAVSPQRIRRVSSSGKPTSLKTAQSSWVNLPRPLPKSKASLKSPALRRTGSTPSIASTHSELSTYSNNSGNAAVIKYEEKPPKPAFQNGSSGSFYLKPLVSRAHVHLMKTPPKGPSRKNLFTALNA
modifications: GFP fusion; (1)..(409) acidic N-terminal region
As for B2, the “localization of GFP fusion protein at the microtubule cytoskeleton” value in assay [3] is on record as “localizes at the microtubule cytoskeleton”. Further, the “co-sedimentation with stabilized microtubules” value in assay [4] is given as “co-sediments with stabilized microtubules”. Besides, the “cell proliferation / number” value in assay [1] is “mimic the inhibitory effects of the entire ATIP3a and ATIP3b proteins”.

B3: ATIP3a: microtubule-associated tumor suppressor 1 isoform 1, SEQ ID NO: 1 (protein, listed as Homo sapiens)
chain: MTDDNSDDKIEDELQTFFTSDKDGNTHAYNPKSPPTQNSSASSVNWNSANPDDMVVDYETDPAVVTGENISLSLQGVEVFGHEKSSSDFISKQVLDMHKDSICQCPALVGTEKPKYLQHSCHSLEAVEGQSVEPSLPFVWKPNDNLNCAGYCDALELNQTFDMTVDKVNCTFISHHAIGKSQSFHTAGSLPPTGRRSGSTSSLSYSTWTSSHSDKTHARETTYDRESFENPQVTPSEAQDMTYTAFSDVVMQSEVFVSDIGNQCACSSGKVTSEYTDGSQQRLVGEKETQALTPVSDGMEVPNDSALQEFFCLSHDESNSEPHSQSSYRHKEMGQNLRETVSYCLIDDECPLMVPAFDKSEAQVLNPEHKVTETEDTQMVSKGKDLGTQNHTSELILSSPPGQKVGSSFGLTWDANDMVISTDKTMCMSTPVLEPTKVTFSVSPIEATEKCKKVEKGNRGLKNIPDSKEAPVNLCKPSLGKSTIKTNTPIGCKVRKTEIISYPRPNFKNVKAKVMSRAVLQPKDAALSKVTPRPQQTSASSPSSVNSRQQTVLSRTPRSDLNADKKAEILINKTHKQQFNKLITSQAVHVTTHSKNASHRVPRTTSAVKSNQEDVDKASSSNSACETGSVSALFQKIKGILPVKMESAECLEMTYVPNIDRISPEKKGEKENGTSMEKQELKQEIMNETFEYGSLFLGSASKTTTTSGRNISKPDSCGLRQIAAPKAKVGPPVSCLRRNSDNRNPSADRAVSPQRIRRVSSSGKPTSLKTAQSSWVNLPRPLPKSKASLKSPALRRTGSTPSIASTHSELSTYSNNSGNAAVIKYEEKPPKPAFQNGSSGSFYLKPLVSRAHVHLMKTPPKGPSRKNLFTALNAVEKSRQKNPRSLCIQPQTAPDALPPEKTLELTQYKTKCENQSGFILQLKQLLACGNTKFEALTVVIQHLLSEREEALKQHKTLSQELVNLRGELVTASTTCEKLEKARNELQTVYEAFVQQHQAEKTERENRLKEFYTREYEKLRDTYIEEAEKYKMQLQEQFDNLNAAHETSKLEIEASHSEKLELLKKAYEASLSEIKKGHEIEKKSLEDLLSEKQESLEKQINDLKSENDALNEKLKSEEQKRRAREKANLKNPQIMYLEQELESLKAVLEIKNEKLHQQDIKLMKMEKLVDNNTALVDKLKRFQQENEELKARMDKHMAISRQLSTEQAVLQESLEKESKVNKRLSMENEELLWKLHNGDLCSPKRSPTSSAIPLQSPRNSGSFPSPSISPR
modifications: (1)..(409) acidic N-terminal region
As to B3, the “cell proliferation / number” value in assay [1] was “inhibit cell proliferation and reduce cancer cell growth”.

B4: ATIP3b: microtubule-associated tumor suppressor 1 isoform 2, SEQ ID NO: 6 (protein, listed as Homo sapiens)
chain: MTDDNSDDKIEDELQTFFTSDKDGNTHAYNPKSPPTQNSSASSVNWNSANPDDMVVDYETDPAVVTGENISLSLQGVEVFGHEKSSSDFISKQVLDMHKDSICQCPALVGTEKPKYLQHSCHSLEAVEGQSVEPSLPFVWKPNDNLNCAGYCDALELNQTFDMTVDKVNCTFISHHAIGKSQSFHTAGSLPPTGRRSGSTSSLSYSTWTSSHSDKTHARETTYDRESFENPQVTPSEAQDMTYTAFSDVVMQSEVFVSDIGNQCACSSGKVTSEYTDGSQQRLVGEKETQALTPVSDGMEVPNDSALQEFFCLSHDESNSEPHSQSSYRHKEMGQNLRETVSYCLIDDECPLMVPAFDKSEAQVLNPEHKVTETEDTQMVSKGKDLGTQNHTSELILSSPPGQKVGSSFGLTWDANDMVISTDKTMCMSTPVLEPTKVTFSVSPIEATEKCKKVEKGNRGLKNIPDSKEAPVNLCKPSLGKSTIKTNTPIGCKVRKTEIISYPRPNFKNVKAKVMSRAVLQPKDAALSKVTPRPQQTSASSPSSVNSRQQTVLSRTPRSDLNADKKAEILINKTHKQQFNKLITSQAVHVTTHSKNASHRVPRTTSAVKSNQEDVDKASSSNSACETGSVSALFQKIKGILPVKMESAECLEMTYVPNIDRISPEKKGEKENGTSMEKQELKQEIMNETFEYGSLFLGSASKTTTTSGRNISKPDSCGLRQIAAPKAKVGPPVSCLRRNSDNRNPSADRAVSPQRIRRVSSSAGNAAVIKYEEKPPKPAFQNGSSGSFYLKPLVSRAHVHLMKTPPKGPSRKNLFTALNAVEKSRQKNPRSLCIQPQTAPDALPPEKTLELTQYKTKCENQSGFILQLKQLLACGNTKFEALTVVIQHLLSEREEALKQHKTLSQELVNLRGELVTASTTCEKLEKARNELQTVYEAFVQQHQAEKTERENRLKEFYTREYEKLRDTYIEEAEKYKMQLQEQFDNLNAAHETSKLEIEASHSEKLELLKKAYEASLSEIKKGHEIEKKSLEDLLSEKQESLEKQINDLKSENDALNEKLKSEEQKRRAREKANLKNPQIMYLEQELESLKAVLEIKNEKLHQQDIKLMKMEKLVDNNTALVDKLKRFQQENEELKARMDKHMAISRQLSTEQAVLQESLEKESKVNKRLSMENEELLWKLHNGDLCSPKRSPTSSAIPLQSPRNSGSFPSPSISPR
modifications: (1)..(409) acidic N-terminal region
With B4, in assay [1], the “cell proliferation / number” value is “inhibit cell proliferation and reduce cancer cell growth”.

B5: D2N: domain of ATIP3BD, amino-acid positions 410-634 of SEQ ID NO: 1, expressed as GFP fusion (protein, listed as Homo sapiens)
chain: GLTWDANDMVISTDKTMCMSTPVLEPTKVTFSVSPIEATEKCKKVEKGNRGLKNIPDSKEAPVNLCKPSLGKSTIKTNTPIGCKVRKTEIISYPRPNFKNVKAKVMSRAVLQPKDAALSKVTPRPQQTSASSPSSVNSRQQTVLSRTPRSDLNADKKAEILINKTHKQQFNKLITSQAVHVTTHSKNASHRVPRTTSAVKSNQEDVDKASSSNSACETGSVSALF
modifications: GFP fusion; (1)..(409) acidic N-terminal region
Turning to B5, in assay [1], the “inhibitory effect on colony number relative to that of GFP-ATIP3” value amounted to 71% and the “cell proliferation / number” value is reported as “strongly reduces the number of G418-resistant colonies”. In assay [2], the intracellular localization result is reported as “associate with the microtubule cytoskeleton”.
